# Where a chain is given by its changes, count along the chain named. In names and notes the source's numbering stands.
# B1: human mitochondrial poly(A) polymerase (mtPAP), wild type, residues 44-538 (enzyme, UniProt Q9NVV4 44-538, looked up)
# chain: EQPSGSVETGFEDKIPKRRFSEMQNERREQAQRTVLIHCPEKISENKFLKYLSQFGPINNHFFYESFGLYAVVEFCQKESIGSLQNGTHTPSTAMETAIPFRSRFFNLKLKNQTSERSRVRSSNQLPRSNKQLFELLCYAESIDDQLNTLLKEFQLTEENTKLRYLTCSLIEDMAAAYFPDCIVRPFGSSVNTFGKLGCDLDMFLDLDETRNLSAHKISGNFLMEFQVKNVPSERIATQKILSVLGECLDHFGPGCVGVQKILNARCPLVRFSHQASGFQCDLTTNNRIALTSSELLYIYGALDSRVRALVFSVRCWARAHSLTSSIPGAWITNFSLTMMVIFFLQRRSPPILPTLDSLKTLADAEDKCVIEGNNCTFVRDLSRIKPSQNTETLELLLKEFFEYFGNFAFDKNSINIRQGREQNKPDSSPLYIQNPFETSLNISKNVSQSQLQKFVDLARESAWILQQEDTDRPSISSNRPWGLVSLLLPSAPNR
# notes: human mitochondrial poly(A) polymerase (MTPAP, formerly PAPD1), residues 44-538, in pET28a; also called wild-type mtPAP; WT
# B2: human mitochondrial poly(A) polymerase (mtPAP), p.N478D mutant, residues 44-538 (enzyme, UniProt Q9NVV4 44-538, looked up)
# chain: B1 chain with N435D
# notes: human mitochondrial poly(A) polymerase (MTPAP), residues 44-538, in pET28a, with the patient mutation p.N478D (c.1432A>G) made with the QuikChange kit; The mutation occurs in patients (spastic ataxia with optic atrophy); also called p.N478D mtPAP; mutant mtPAP
# Target: the molecule itself
# Experiment: SEC; gel filtration analysis of wild-type and mutant mtPAP isolated to electrophoretic purity
row,Protein,stoichiometry N
1,B1,2
2,B2,2
